Measurements published in paper PMC10250233.
Values joined by “and” are separate entries in the source; they are usually repeats but may differ in a detail not shown here. Equal values may be shown once.

How the values were obtained:
Test in all cases: fluorescence anisotropy
[1] = biological target: RPA WT (RPA70-RPA32-RPA14) (human) (UniProt P27694+P15927+P35244); details: FA: 200 mM NaCl, KCl or LiCl, 20 mM HEPES pH 7.4, 1 mM DTT, 22-25 C, 375 or 750 pM oligo, Kd,app +/- SEM; EMSA: 20 mM HEPES pH 7.4, 200 mM KCl, 1 nM 32P oligo
RPA WT (RPA70-RPA32-RPA14) (human), sequence (P27694 whole entry, chain 1 of 3): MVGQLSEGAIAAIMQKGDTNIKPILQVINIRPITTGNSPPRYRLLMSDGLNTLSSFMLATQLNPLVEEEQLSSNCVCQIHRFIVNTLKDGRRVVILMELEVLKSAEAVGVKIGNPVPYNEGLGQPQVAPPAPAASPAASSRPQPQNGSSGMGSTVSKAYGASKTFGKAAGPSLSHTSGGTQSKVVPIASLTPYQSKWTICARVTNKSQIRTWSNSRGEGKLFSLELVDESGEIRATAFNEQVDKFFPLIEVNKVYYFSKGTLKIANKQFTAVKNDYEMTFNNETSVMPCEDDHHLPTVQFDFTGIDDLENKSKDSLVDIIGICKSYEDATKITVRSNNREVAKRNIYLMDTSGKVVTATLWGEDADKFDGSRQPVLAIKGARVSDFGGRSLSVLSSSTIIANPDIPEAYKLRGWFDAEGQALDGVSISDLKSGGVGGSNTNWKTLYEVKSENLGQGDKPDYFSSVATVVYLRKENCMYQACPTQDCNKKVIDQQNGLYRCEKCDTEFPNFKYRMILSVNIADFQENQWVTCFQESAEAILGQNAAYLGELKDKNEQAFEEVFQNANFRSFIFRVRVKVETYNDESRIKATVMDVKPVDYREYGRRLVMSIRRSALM
RPA WT (RPA70-RPA32-RPA14) (human), sequence (P15927 whole entry, chain 2 of 3): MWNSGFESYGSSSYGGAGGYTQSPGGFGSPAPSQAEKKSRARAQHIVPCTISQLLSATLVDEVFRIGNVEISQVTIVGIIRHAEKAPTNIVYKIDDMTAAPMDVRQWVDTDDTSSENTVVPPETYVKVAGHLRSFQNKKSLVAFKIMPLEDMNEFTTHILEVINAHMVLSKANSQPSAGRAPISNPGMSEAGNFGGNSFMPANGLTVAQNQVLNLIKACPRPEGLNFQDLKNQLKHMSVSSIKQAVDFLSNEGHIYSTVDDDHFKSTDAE
RPA WT (RPA70-RPA32-RPA14) (human), sequence (P35244 whole entry, chain 3 of 3): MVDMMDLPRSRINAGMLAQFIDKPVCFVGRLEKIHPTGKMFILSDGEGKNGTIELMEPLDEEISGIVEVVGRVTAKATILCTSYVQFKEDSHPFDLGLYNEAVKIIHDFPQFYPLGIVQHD

[2] = biological target: CST (CTC1-STN1-TEN1) (human) (UniProt Q2NKJ3+Q9H668+Q86WV5); details: FA: 200 mM NaCl, KCl or LiCl, 20 mM HEPES pH 7.4, 1 mM DTT, 22-25 C, 375 or 750 pM oligo, Kd,app +/- SEM, EMSA: 20 mM HEPES pH 7.4, 200 mM KCl, 1 nM 32P oligo
CST (CTC1-STN1-TEN1) (human), sequence (Q2NKJ3 whole entry, chain 1 of 3): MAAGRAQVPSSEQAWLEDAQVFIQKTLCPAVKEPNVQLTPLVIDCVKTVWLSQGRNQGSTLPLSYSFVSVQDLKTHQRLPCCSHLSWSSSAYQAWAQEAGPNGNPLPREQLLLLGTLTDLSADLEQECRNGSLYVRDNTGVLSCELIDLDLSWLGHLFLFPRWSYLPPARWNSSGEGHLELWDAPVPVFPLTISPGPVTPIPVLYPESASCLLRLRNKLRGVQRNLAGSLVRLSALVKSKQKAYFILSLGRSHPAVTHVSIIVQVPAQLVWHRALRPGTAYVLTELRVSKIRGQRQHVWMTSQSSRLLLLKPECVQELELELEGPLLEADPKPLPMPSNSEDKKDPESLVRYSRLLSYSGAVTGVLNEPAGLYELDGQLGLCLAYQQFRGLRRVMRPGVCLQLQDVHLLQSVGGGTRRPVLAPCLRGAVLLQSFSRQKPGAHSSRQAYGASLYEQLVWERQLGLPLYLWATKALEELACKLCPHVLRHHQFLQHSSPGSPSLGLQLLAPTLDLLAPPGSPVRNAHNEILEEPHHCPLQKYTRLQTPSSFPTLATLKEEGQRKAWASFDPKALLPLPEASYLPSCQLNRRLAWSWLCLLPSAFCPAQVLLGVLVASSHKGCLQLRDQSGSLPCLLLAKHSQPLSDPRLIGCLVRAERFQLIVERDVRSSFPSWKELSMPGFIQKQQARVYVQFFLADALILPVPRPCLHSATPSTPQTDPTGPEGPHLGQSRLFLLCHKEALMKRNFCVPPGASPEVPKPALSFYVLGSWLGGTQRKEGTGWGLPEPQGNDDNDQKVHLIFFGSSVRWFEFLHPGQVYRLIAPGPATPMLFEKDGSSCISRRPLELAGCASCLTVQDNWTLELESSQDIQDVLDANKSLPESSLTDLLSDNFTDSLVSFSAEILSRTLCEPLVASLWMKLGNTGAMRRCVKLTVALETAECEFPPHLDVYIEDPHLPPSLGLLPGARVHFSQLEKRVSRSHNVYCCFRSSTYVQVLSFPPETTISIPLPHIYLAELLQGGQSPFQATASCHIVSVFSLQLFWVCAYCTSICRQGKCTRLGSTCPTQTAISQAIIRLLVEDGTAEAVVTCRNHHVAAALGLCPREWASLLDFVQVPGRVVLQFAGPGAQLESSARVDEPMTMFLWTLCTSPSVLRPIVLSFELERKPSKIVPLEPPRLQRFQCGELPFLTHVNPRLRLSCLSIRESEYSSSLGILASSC
CST (CTC1-STN1-TEN1) (human), sequence (Q9H668 whole entry, chain 2 of 3): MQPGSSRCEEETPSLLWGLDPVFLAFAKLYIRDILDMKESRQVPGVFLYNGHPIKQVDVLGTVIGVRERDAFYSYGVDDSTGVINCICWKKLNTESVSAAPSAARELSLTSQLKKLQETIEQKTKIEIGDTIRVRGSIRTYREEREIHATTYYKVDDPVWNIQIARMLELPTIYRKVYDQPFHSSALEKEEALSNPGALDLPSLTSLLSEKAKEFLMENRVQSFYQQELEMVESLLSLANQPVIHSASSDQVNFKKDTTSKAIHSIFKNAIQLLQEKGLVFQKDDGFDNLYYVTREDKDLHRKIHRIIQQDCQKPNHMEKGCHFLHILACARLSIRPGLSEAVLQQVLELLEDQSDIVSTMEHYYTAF
CST (CTC1-STN1-TEN1) (human), sequence (Q86WV5 whole entry, chain 3 of 3): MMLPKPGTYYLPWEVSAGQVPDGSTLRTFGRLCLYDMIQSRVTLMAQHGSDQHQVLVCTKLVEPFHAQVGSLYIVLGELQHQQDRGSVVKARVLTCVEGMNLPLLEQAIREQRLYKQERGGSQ

RPA AroA (human) = details: FA: 200 mM NaCl, KCl or LiCl, 20 mM HEPES pH 7.4, 1 mM DTT, 22-25 C, 375 or 750 pM oligo, Kd,app +/- SEM; EMSA: 20 mM HEPES pH 7.4, 200 mM KCl, 1 nM 32P oligo
RPA AroB (human) = details: FA: 200 mM NaCl, KCl or LiCl, 20 mM HEPES pH 7.4, 1 mM DTT, 22-25 C, 375 or 750 pM oligo, Kd,app +/- SEM; EMSA: 20 mM HEPES pH 7.4, 200 mM KCl, 1 nM 32P oligo
RPA AroC (human) = details: FA: 200 mM NaCl, KCl or LiCl, 20 mM HEPES pH 7.4, 1 mM DTT, 22-25 C, 375 or 750 pM oligo, Kd,app +/- SEM; EMSA: 20 mM HEPES pH 7.4, 200 mM KCl, 1 nM 32P oligo
RPA Aro1 (human) = details: FA: 200 mM NaCl, KCl or LiCl, 20 mM HEPES pH 7.4, 1 mM DTT, 22-25 C, 375 or 750 pM oligo, Kd,app +/- SEM; EMSA: 20 mM HEPES pH 7.4, 200 mM KCl, 1 nM 32P oligo
RPA Aro3 (human) = details: FA: 200 mM NaCl, KCl or LiCl, 20 mM HEPES pH 7.4, 1 mM DTT, 22-25 C, 375 or 750 pM oligo, Kd,app +/- SEM; EMSA: 20 mM HEPES pH 7.4, 200 mM KCl, 1 nM 32P oligo
RPA Aro4 (human) = details: FA: 200 mM NaCl, KCl or LiCl, 20 mM HEPES pH 7.4, 1 mM DTT, 22-25 C, 375 or 750 pM oligo, Kd,app +/- SEM; EMSA: 20 mM HEPES pH 7.4, 200 mM KCl, 1 nM 32P oligo

Substance | Kd [1] | Kd ([2]; 200 mM LiCl) | Kd [2] | Kd (RPA AroA (human)) | Kd ([2]; 200 mM KCl, printed >=, incomplete curve) | Kd (RPA AroB (human)) | Kd (RPA AroC (human)) | Kd (RPA Aro1 (human)) | Kd (RPA Aro3 (human)) | Kd (RPA Aro4 (human))
Tel40 | 1300 pM and 1100 pM and 900 pM | 730 pM | 740 pM and 1100 pM | – | – | – | – | – | – | –
Tel22 | 1230 pM and 1990 pM and 350 pM | 6700 pM | 106000 pM | 2400 pM and 2500 pM and 360 pM | > 340000 pM | – | – | – | – | –
Tel30 | 960 pM and 810 pM and 320 pM | 5200 pM | 67000 pM and 112000 pM | 480 pM and 770 pM and 290 pM | – | 1070 pM and 1900 pM and 360 pM | 620 pM and 1620 pM and 280 pM | – | – | –
Tel60 | 790 pM and 690 pM and 800 pM | 1200 pM | 10600 pM and 9000 pM | – | – | – | – | – | – | –
Tel18 | 730 pM and 500 pM and 660 pM | 6700 pM | 7700 pM and 9300 pM | 790 pM and 340 pM and 360 pM | – | 500 pM and 660 pM and 450 pM | 590 pM and 260 pM and 490 pM | 4700 pM and 2500 pM and 5600 pM | 240 pM and 560 pM and 650 pM | 3500 pM and 9100 pM and 5100 pM
